Measurements from IntAct's records for PubMed 16778768.

B1: High osmolarity signaling protein SHO1 (Saccharomyces cerevisiae), P40073 (parent)
chain: MSISSKIRPTPRKPSRMATDHSFKMKKFYADPFAISSISLAIVSWVIAIGGSISSASTNESFPRFTWWGIVYQFLIICSLMLFYCFDLVDHYRIFITTSIAVAFVYNTNSATNLVYADGPKKAAASAGVILLSIINLIWILYYGGDNASPTNRWIDSFSIKGIRPSPLENSLHRARRRGNRNTTPYQNNVYNDAIRDSGYATQFDGYPQQQPSHTNYVSSTALAGFENTQPNTSEAVNLHLNTLQQRINSASNAKETNDNSNNQTNTNIGNTFDTDFSNGNTETTMGDTLGLYSDIGDDNFIYKAKALYPYDADDDDAYEISFEQNEILQVSDIEGRWWKARRANGETGIIPSNYVQLIDGPEEMHR
partner: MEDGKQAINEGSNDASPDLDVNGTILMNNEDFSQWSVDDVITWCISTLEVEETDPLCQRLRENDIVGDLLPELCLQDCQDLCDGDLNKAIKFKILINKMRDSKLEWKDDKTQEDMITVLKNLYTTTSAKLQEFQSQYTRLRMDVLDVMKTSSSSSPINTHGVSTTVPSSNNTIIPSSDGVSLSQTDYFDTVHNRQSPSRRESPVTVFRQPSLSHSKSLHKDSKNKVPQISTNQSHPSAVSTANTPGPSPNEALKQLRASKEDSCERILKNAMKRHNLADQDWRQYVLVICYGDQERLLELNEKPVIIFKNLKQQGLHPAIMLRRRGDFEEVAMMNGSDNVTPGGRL
B2: High osmolarity signaling protein SHO1 (Saccharomyces cerevisiae), P40073 (parent)
chain: B1 chain
partner: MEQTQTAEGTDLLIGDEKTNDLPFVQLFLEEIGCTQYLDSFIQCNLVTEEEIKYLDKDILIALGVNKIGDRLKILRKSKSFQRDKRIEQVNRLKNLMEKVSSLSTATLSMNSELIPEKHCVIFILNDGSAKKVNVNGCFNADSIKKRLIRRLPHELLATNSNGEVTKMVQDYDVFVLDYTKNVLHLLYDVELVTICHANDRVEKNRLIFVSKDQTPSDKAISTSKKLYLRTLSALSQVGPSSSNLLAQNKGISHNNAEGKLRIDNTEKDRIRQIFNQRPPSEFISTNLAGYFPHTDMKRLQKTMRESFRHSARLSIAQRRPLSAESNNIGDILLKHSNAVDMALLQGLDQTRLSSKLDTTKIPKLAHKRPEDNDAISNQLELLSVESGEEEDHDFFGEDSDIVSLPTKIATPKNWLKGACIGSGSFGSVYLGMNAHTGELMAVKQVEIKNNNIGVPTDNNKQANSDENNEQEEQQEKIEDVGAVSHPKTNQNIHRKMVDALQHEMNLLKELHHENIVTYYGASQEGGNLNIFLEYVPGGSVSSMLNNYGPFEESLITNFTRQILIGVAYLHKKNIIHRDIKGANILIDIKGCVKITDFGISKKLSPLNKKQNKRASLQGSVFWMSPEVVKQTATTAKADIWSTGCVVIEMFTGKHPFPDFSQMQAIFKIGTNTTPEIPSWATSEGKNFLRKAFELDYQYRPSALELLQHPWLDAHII

Variants of: B1
Conditions: with ste50_yeast STE50, P25344

effect of a mutation on the interaction	Variant
increasing interaction	G346S
increasing interaction	R342G

Variants of: B2
Conditions: with ste11_yeast STE11, P23561

effect of a mutation on the interaction	Variant
increasing interaction	R342G
increasing interaction	G346S
